In this experiment the target is Proliferating cell nuclear antigen (PCNA), wild type (UniProt P15873). In words: MST; fluorescently labeled PCNA (22 nM, RED-NHS) constant, Mus81 (1-319) fragment 1.3-5500 nM; T buffer with 0.05% Tween-20 and 150 mM KCl; 25 °C; Monolith NT.115; apparent Kd.

Substitutions are numbered along the chain they refer to. Numbers in names are those of the source.

B1: N-terminal fragment of Mus81 (1-319) (domain or fragment)
chain: MELSSNLKDLYIEWLQELVDGLTPKQEQLKIAYEKAKRNLQNAEGSFYYPTDLKKVKGIGNTIIKRLDTKLRNYCKIHHISPVEAPSLTQTSSTRPPKRTTTALRSIVNSCENDKNEAPEEKGTKKRKTRKYIPKKRSGGYAILLSLLELNAIPRGVSKEQIIEVAGKYSDHCMTPNFSTKEFYGAWSSIAALKKHSLVLEEGRPKRYSLTEEGVELTKSLKTADGISFPKENEEPNEYSVTRNESSEFTANLTDLRGEYGKEEEPCDINNTSFMLDITFQDLSTPQRLQNNVFKNDRLNSQTNISSHKLEEVSDDQTV
For B1, the Kd stood at 0.253 µM.

B2: Mus81 (1-319) E44Q mutant (domain or fragment)
chain: B1 chain with E44Q
As to B2, the Kd came out at 20.5 µM.
